Experiment [1] concerns the target PAN domain of SpG-type LecRLK-2 (amino acids 322-400), secreted His-Avi-sfGFP fusion (Salix purpurea). The experiment is described as follows: SEC.
For experiment [2], the target named is PAN domain of SpG-type LecRLK-2R (amino acids 322-400), secreted His-Avi-sfGFP fusion (Salix purpurea). The experiment is described as follows: SEC.

In experiment [1], “PAN domain of SpG-type LecRLK-2 (amino acids 322-400), secreted His-Avi-sfGFP fusion (domain or fragment)” came in with a percent in higher-order complex of 48.2% and a percent monomeric of 51.8%. The substance “PAN domain of SpG-type LecRLK-2R (amino acids 322-400), secreted His-Avi-sfGFP fusion (domain or fragment)” had a percent monomeric in experiment [2] of 26.4%.

Source of the values: publication doi:10.1101/2023.06.15.545202.
